Measurements reported in patent publication US20120065106.

T1: SUMO*-GFP (engineered SUMO 2F4, Smt3 R64T R71E, fused to GFP)
T1 chain: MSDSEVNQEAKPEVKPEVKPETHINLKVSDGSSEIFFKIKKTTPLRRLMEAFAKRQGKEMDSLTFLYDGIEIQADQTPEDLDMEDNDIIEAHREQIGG


Columns and labels:
[1] = target: T1, SUMO*-GFP (engineered SUMO 2F4, Smt3 …)
[2] = target: SUMO mutant 2E4 (R64T; R71E), GFP fusion [SUMO: Q12306]
[3] = target: SUMO mutant 1C1 (R64L), GFP fusion [SUMO: Q12306]
[4] = target: SMT3-GFP (wild-type SUMO-GFP fusion) [SUMO: Q12306]
[5] = target: SUMO mutant 2E11 (R64F; R71E), GFP fusion [SUMO: Q12306]
[6] = target: SUMO mutant 1A3 (R64Q), GFP fusion [SUMO: Q12306]

| Protein | % Cleavage of SUMO* tag [1] | in vitro cleavage, protease titration (SDS-PAGE) [1] | in vitro cleavage, protease titration (SDS-PAGE) [4] | also measured |
| --- | --- | --- | --- | --- |
| ULP1 mutant 1.38 (residues 451-455: S T I I A) (protein) LVPELNEKDDDQVQKALASRENTQLMNRDNIEITVRDFKTLAPRRWLNSTIIAFFMKYIEKSTPNTVAFNSFFYTNLSERGYQGVRRWMKRKKTQIDKLDKIFTPINLNQSHWALGIIDLKKKTIGYVDSLSNGPNAMSFAILTDLQKYVMEESKHTIGEDFDLIHLDCPQQPNGYDCGIYVCMNTLYGSADAPLDFDYKDAIRMRRFIAHLILTDALK | 75% |  |  |  |
| ULP1 (wild-type SUMO protease 1) (protein) LVPELNEKDDDQVQKALASRENTQLMNRDNIEITVRDFKTLAPRRWLNDTIIEFFMKYIEKSTPNTVAFNSFFYTNLSERGYQGVRRWMKRKKTQIDKLDKIFTPINLNQSHWALGIIDLKKKTIGYVDSLSNGPNAMSFAILTDLQKYVMEESKHTIGEDFDLIHLDCPQQPNGYDCGIYVCMNTLYGSADAPLDFDYKDAIRMRRFIAHLILTDALK | 0% | ULP1 does not cleave SUMO* tag | ULP1 cleaves the SMT3 tag | % Cleavage with ULP1 [2]: 0%; % Cleavage with ULP1 [3]: 10%; % Cleavage with ULP1 [1]: 0%; in vitro cleavage reaction [1]: Neither protease cleaved SUMO*; in vitro cleavage, protease titration [1]: incubated with increasing amounts of Ulp1 up to 1000 fold excess of the enzyme concentration required to fully cleave SUMO and still no cleavage was detected; % Cleavage with ULP1 [4]: 100%; in vitro cleavage (SDS-PAGE and anti-Smt3 Western blot) [4]: wild-type SUMO (Smt3) is cleaved by ULP1 and SENP2 (SUMO protease 1 and 2) in vitro; % Cleavage with ULP1 [5]: 0%; % Cleavage with ULP1 [6]: 10% |
| ULP1 mutant 1.48 (residues 451-455: S T I I M) (protein) LVPELNEKDDDQVQKALASRENTQLMNRDNIEITVRDFKTLAPRRWLNSTIIMFFMKYIEKSTPNTVAFNSFFYTNLSERGYQGVRRWMKRKKTQIDKLDKIFTPINLNQSHWALGIIDLKKKTIGYVDSLSNGPNAMSFAILTDLQKYVMEESKHTIGEDFDLIHLDCPQQPNGYDCGIYVCMNTLYGSADAPLDFDYKDAIRMRRFIAHLILTDALK | 75% |  |  |  |
| ULP1 mutant 2.3 (residues 451-455: A M I I A) (protein) LVPELNEKDDDQVQKALASRENTQLMNRDNIEITVRDFKTLAPRRWLNAMIIAFFMKYIEKSTPNTVAFNSFFYTNLSERGYQGVRRWMKRKKTQIDKLDKIFTPINLNQSHWALGIIDLKKKTIGYVDSLSNGPNAMSFAILTDLQKYVMEESKHTIGEDFDLIHLDCPQQPNGYDCGIYVCMNTLYGSADAPLDFDYKDAIRMRRFIAHLILTDALK | 10% |  |  |  |
| SUMO* protease 1 (ULP1 mutant 2.2; D451S, T452G, E455S) (protein) MGLVPELNEKDDDQVQKALASRENTQLMNRDNIEITVRDFKTLAPRRWLNSGIISFFMKYIEKSTPNTVAFNSFFYTNLSERGYQGVRRWMKRKKTQIDKLDKIFTPINLNQSHWALGIIDLKKKTIGYVDSLSNGPNAMSFAILTDLQKYVMEESKHTIGEDFDLIHLDCPQQPNGYDCGIYVCMNTLYGSADAPLDFDYKDAIRMRRFIAHLILTDALKLEHHHHHH | 100% | SUMO* protease 1 cleaves the SUMO* tag | SUMO* protease 1 cleaves wild type SUMO, but less efficiently than SUMO* |  |
